{"source": "patent US20190241662A1", "about": "(ADAGENE, published 2019)", "binders": {"B1": {"name": "TY21591 (antibody, V domains shown)", "VH": "EVQLVESGGGLVQPGGSLRLSCAASGFSLSTGGVAVSWIRQAPGKGLEWIGEIYHSGSTYYSPSLKSRVTISRDNSKNTLYLQLNSLRAEDTAVYYCARRIATATYFDYWGQGTLVTVSS", "VL": "DIQLTQSPSSLSASVGDRVTITCRASQTVFSRYLAWYQQKPGKAPKLLIYDASNRATGIPSRFSGSGSGTDFTLTISSLQPEDFATYYCQQSYYWPPWTFGQGTKVEIK", "notes": "human IgG1 (hIgG1) from Fab hit B15756"}, "B2": {"name": "TY21687 (antibody, V domains shown)", "VH": "EVQLVESGGGLVQPGGSLRLSCAASGFTFSGYAIHWVRQAPGKGLEWIGIISPSGGGTKYAQKFQGRVTISRDNSKNTLYLQLNSLRAEDTAVYYCARHPFAYWGQGTLVTVSS", "VL": "DIQLTQSPSSLSASVGDRVTITCRASQSVDFYGISFLDWYQQKPGKAPKLLIYDASNRATGIPSRFSGSGSGTDFTLTISSLQPEDFATYYCQQYVSSPPEYTFGQGTKVEIK", "notes": "human IgG1 (hIgG1) from Fab hit B15700"}, "B3": {"name": "TY21585 (antibody, V domains shown)", "VH": "EVQLVESGGGLVQPGGSLRLSCAASGFTFSDYAIHWVRQAPGKGLEWIGIISPSSGSTNYAQKFQGRVTISRDNSKNTLYLQLNSLRAEDTAVYYCARDIHSGSSGYYYGFDVWGQGTLVTVSS", "VL": "B2 VL with Q27E, Y32F, D38A, Q94H, V96T, E101V", "notes": "human IgG1 (hIgG1) from Fab hit B15709"}}, "assay_in_all_cases": "flow cytometry, transfected HEK293F cells, 100 nM antibody [Cont.]", "key": {"[1]": {"target": "T1, human CD95 on HEK293F cells (human, UniProt P25445 26-335)", "T1 construct": "whole, on cells", "T1 sequence (looked up)": "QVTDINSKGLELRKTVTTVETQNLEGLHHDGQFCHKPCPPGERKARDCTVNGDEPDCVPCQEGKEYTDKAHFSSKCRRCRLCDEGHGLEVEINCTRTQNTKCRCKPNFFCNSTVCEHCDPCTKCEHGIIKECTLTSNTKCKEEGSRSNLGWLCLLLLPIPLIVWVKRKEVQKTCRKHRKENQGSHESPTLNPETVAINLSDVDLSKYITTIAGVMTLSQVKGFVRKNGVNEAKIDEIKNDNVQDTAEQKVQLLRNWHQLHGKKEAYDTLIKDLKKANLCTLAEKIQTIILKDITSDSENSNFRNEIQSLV", "protocol": "(§1) Antibody selectivity was next examined. Human CTLA4, PD1, LAG3, Tim3, B7H3, CD95, TNFR1, OX40, CD40, PD-L1, BLTA, VISTA, PDL2, ICOS and B7H4 were transiently overexpressed on the surface of HEK293F cells. Transfected cells were washed in pre-chilled 1×PBSA buffer (1.76 mM KH2PO4, 10.14 mM Na2HPO4.12H2O, 2.68 mM KCl, 136.89 mM NaCl and 1% BSA), then incubated with 100 nM test antibodies for 1 hour on ice. Cells were washed once with staining buffer, and Alexa Fluor® 647 conjugated mouse anti-human FC antibodies were added and incubated for 30 minutes on ice, protected from light. Samples were washed once with staining buffer prior to analysis by flow cytometry."}, "[2]": {"target": "T2, human TNFR1 on HEK293F cells (human, UniProt P19438 30-455)", "T2 construct": "whole, on cells; also called CD120a", "T2 sequence (looked up)": "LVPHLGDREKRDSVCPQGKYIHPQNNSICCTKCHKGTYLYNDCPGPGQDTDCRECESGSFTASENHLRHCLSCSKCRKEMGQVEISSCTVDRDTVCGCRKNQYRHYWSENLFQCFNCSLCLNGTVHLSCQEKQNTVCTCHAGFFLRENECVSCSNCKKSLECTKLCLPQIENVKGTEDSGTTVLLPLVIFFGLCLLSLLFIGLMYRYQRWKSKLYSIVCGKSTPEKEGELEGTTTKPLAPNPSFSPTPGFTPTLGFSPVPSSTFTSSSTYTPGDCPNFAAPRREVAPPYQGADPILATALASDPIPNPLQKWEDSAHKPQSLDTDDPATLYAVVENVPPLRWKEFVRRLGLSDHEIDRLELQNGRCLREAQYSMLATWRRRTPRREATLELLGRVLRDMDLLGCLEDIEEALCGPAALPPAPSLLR", "protocol": "as §1"}, "[3]": {"target": "T3, human PD1 on HEK293F cells (human, UniProt Q15116 25-288)", "T3 construct": "whole, on cells", "T3 sequence (Q15116 25-288)": "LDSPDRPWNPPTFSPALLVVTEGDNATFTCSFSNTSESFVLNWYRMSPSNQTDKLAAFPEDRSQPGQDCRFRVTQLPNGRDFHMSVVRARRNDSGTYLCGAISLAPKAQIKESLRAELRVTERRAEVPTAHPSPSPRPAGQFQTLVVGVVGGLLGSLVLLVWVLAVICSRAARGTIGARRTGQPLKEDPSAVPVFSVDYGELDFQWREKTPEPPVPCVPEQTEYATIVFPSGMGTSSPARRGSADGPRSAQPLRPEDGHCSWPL", "protocol": "as §1"}, "[4]": {"target": "T4, human LAG3 on HEK293F cells (human, UniProt P18627 23-525)", "T4 construct": "whole, on cells", "T4 sequence (looked up)": "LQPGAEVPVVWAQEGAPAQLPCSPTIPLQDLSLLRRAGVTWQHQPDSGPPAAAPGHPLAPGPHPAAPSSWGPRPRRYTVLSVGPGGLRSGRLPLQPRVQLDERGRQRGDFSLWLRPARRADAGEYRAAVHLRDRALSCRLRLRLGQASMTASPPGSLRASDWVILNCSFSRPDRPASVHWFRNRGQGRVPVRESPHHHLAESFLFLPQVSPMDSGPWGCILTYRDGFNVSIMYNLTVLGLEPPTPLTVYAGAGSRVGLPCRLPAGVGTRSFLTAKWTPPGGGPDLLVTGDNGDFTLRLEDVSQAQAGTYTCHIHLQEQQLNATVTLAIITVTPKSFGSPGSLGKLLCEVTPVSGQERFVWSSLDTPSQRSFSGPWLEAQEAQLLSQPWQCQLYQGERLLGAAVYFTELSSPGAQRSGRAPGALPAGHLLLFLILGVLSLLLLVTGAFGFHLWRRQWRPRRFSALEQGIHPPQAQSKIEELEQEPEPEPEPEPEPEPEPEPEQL", "protocol": "as §1"}, "[5]": {"target": "T5, human Tim3 on HEK293F cells (human, UniProt Q8TDQ0 22-301)", "T5 construct": "whole, on cells", "T5 sequence (looked up)": "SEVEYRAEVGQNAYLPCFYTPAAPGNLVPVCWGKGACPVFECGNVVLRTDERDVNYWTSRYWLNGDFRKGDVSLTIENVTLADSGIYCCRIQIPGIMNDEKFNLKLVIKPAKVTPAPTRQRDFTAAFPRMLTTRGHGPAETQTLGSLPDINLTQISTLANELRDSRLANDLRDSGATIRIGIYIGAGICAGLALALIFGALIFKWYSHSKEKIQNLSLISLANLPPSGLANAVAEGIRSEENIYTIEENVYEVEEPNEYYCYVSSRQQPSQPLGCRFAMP", "protocol": "as §1"}, "[6]": {"target": "T6, human B7H3 on HEK293F cells (human, UniProt Q5ZPR3 29-534)", "T6 construct": "whole, on cells", "T6 sequence (looked up)": "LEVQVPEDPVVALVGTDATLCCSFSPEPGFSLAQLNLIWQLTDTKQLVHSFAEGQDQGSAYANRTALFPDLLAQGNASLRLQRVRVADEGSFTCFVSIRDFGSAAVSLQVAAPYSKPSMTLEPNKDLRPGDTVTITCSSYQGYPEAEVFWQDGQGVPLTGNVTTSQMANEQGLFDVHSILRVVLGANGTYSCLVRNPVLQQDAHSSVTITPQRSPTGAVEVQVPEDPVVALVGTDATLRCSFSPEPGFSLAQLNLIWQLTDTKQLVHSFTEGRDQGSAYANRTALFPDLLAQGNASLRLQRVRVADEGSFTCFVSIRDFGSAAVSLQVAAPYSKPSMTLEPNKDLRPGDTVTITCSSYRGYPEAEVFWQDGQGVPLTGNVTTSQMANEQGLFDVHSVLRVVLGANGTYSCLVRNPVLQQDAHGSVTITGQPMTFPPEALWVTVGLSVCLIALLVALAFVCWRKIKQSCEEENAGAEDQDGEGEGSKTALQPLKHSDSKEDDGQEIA", "protocol": "as §1"}, "[7]": {"target": "T7, human CD40 on HEK293F cells (human, UniProt P25942 21-277)", "T7 construct": "whole, on cells", "T7 sequence (P25942 21-277)": "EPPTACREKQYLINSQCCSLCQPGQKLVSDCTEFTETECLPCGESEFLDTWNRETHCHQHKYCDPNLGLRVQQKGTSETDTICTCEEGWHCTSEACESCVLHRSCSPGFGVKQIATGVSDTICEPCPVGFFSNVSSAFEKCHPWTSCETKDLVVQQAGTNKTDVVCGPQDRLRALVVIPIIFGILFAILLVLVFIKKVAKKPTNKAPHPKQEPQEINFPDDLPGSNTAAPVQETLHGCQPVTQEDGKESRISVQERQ", "protocol": "as §1"}}, "note": "Numbering of substitutions follows the chain as printed."}
{"binder": "B1", "values": [{"measurement": "% of cells in upper right quadrant (Q2)", "setting": "[1]", "value": 0.22}, {"measurement": "Mean", "setting": "[1]", "value": 5570}, {"measurement": "% of cells in upper right quadrant (Q2)", "setting": "[2]", "value": 0.33}, {"measurement": "Mean", "setting": "[2]", "value": 6490}]}
{"binder": "B2", "values": [{"measurement": "% of cells in upper right quadrant (Q2)", "setting": "[3]", "value": 5.96, "unit": "%"}, {"measurement": "% of cells in upper right quadrant (Q2)", "setting": "[4]", "value": 1.31, "unit": "%"}, {"measurement": "% of cells in upper right quadrant (Q2)", "setting": "[5]", "value": 1.85, "unit": "%"}, {"measurement": "% of cells in upper right quadrant (Q2)", "setting": "[6]", "value": 1.29, "unit": "%"}]}
{"binder": "B3", "values": [{"measurement": "% of cells in upper right quadrant (Q2)", "setting": "[7]", "value": 0.95}, {"measurement": "Mean", "setting": "[7]", "value": 8270}]}
